The values below come from PMC12474298.

The target of this test is HaHV1 UL36h NLS peptide (residues 1491-1500), FITC/Ahx-labelled (haliotid herpesvirus 1 (HaHV1)). As to the kind of experiment: fluorescence polarisation. For orientation: Polarisation of emitted light reports the rotation of a fluorescent probe.

As a reminder, the Kd is the constant that tells how readily two partners part at equilibrium. A high value points to lower affinity.

“human importin α1 lacking the importin-β binding domain (hIMPα1ΔIBB) (domain or fragment)” came in with a dissociation constant (Kd) of 226 nM.
“human importin α3 lacking the importin-β binding domain (hIMPα3ΔIBB) (domain or fragment)” showed an equilibrium dissociation constant (Kd) of 193 nM.
